Patent publication US20090022687A1, “Novel Pharmaceuticals That Use Anti-HLA Antibodies” (Chugai Seiyaku Kabushiki Kaisha, priority 2005, published 2009)

Tests used:
IM-9 cells = assay: Cytotoxicity assay (WST-8 cell viability); type: cell-based, human; settings: IM-9, 24 hours after cross-linking with the secondary antibody
Protocol: (§1) In other experiments, cells were cultured with 2D7-DB in the absence of the goat anti-mouse IgG antibody. Cell viabilities were determined by WST-8 assays or Trypan Blue exclusion assays. […] (B) The morphological observations of myeloma cells after 2D7-DB treatment are shown. Purified MM cells derived from patient No. 18 were cultured for 24 hours in the presence (1 μg/mL) or absence of 2D7-DB. Next, cells were fixed on glass slides and stained with light Giemsa (original magnification,×1000). (C) A graph indicating the cytotoxic activity of 2D7-DB on the patients' MM cells is shown. CD138-positive MM cells were purified from six patients, and the cells were cultured for 24 hours with 2D7-DB (0.1 or 1μg/mL). Cell viabilities were determined by Trypan Blue exclusion assays.
Cytotoxicity assays were performed as follows. […] Cell viabilities were measured by WST-8 assays (Kishida Chemical, Osaka, Japan) for the cell lines, and by Trypan Blue dye exclusion assays for patient-derived primary MM cells. Apoptosis induction was assessed by flow cytometric analysis with Annexin V and PI staining (MEBCYTO apoptosis kit MBL, Nagoya, Japan).
Next, cytotoxic effects of single chain Fv-type 2D7 mAb (2D7-DB) on MM cell lines and patient-derived MM cells were assessed. […]

HLA-A on lymphocytes = assay: HLA-A expression in BMMCs of MM patients (flow cytometry, FITC-labeled 2D7 mAb); type: binding, human; settings: BM samples of 22 MM patients, mean±SD
Protocol: (§2) After cell gating (R1: CD38-positive MM cells; R2: myeloid cells; and R3: lymphocytes), each cell population was evaluated for HLA-A expression. (B) BMMCs derived from 22 MM patients were analyzed for HLA-A expression.
(§3) Patients' MM cells were prepared as follows. First clinical disease stage classification and diagnosis of MM patients were performed according to the Durie and Salmon classification (Durie, B. CT, and S. E. Salmon. 1975. “A clinical staging system for multiple myeloma. Correlation of measured myeloma cell mass with presenting clinical features, response to treatment, and survival,” Cancer, 36:842-854). Bone marrow samples were collected from patients after obtaining informed consent upon approval by the ethics committee of The University of Tokushima. The bone marrow mononuclear cells (BMMCs) were separated by Ficoll-Hypaque (density of 1.077) centrifugation. Patient-derived MM cells were further purified from BMMCs using CD138 microbeads (Miltenyi Biotec, Auburn, Calif.).
(§4) Cell surface expression analysis of HLA class I by flow cytometry was performed as follows using FITC-labeled 2D7 mAb or FITC-labeled anti-HLA-ABC common region mAb (Chemicon, San Diego, Calif.). The cells (5×10^5 cells) were washed twice with PBS, and then incubated on ice for 40 minutes with FITC-labeled 2D7 mAb or FITC-labeled anti-HLA-ABC common region mAb. MM patient-derived BMMCs were incubated on ice for 15 minutes with 2% γ globulin diluted in PBS, and stained with FITC-labeled 2D7 mAb and PE-labeled anti-CD38 mAb (BD Bioscience, San Jose, Calif.) for myeloma cell gating. Next, the cells were washed twice with PBS, and analyzed using an EPICS XL flow cytometer (Beckman Coulter, Japan). […] HLA class I expression levels were evaluated as GeoMFI using the CellQuest software (BID Biosciences).
(§5) Next, HLA-A expression in BMMCs of MM patients was examined. […] After gating the cells according to their side-scattered light profile and CD38 expression, each of the cell populations comprising myeloma cells, myeloid cells, and lymphocytes was analyzed for HLA-A expression. […]

HLA-A on myeloid cells = assay: as above; type: binding, human; settings: BM samples of 22 MM patients, mean±SD
Protocol: as §2, §3, §4, §5

HLA-A on myeloma cells = assay: as above; type: binding, human; settings: BM samples of 22 MM patients, mean±SD
Protocol: as §2, §3, §4, §5

HLA-A on CD34+ cells = assay: Two-color flow cytometry of a peripheral blood stem cell collection; type: binding, human; settings: CD34+ cells in a peripheral blood stem cell collection, n=3
patient-derived MM cells = assay: Cytotoxicity assay (Trypan Blue dye exclusion), patient-derived primary MM cells; type: cell-based, human; settings: newly isolated MM cells, in the presence of a secondary antibody
Protocol: as §1, with “In other experiments, cells were cultured with 2D7-DB in the absence of the goat anti-mouse IgG antibody.” left out
Patients' MM cells were prepared as follows. First clinical disease stage classification and diagnosis of MM patients were performed according to the Durie and Salmon classification (Durie, B. CT, and S. E. Salmon. 1975. “A clinical staging system for multiple myeloma. Correlation of measured myeloma cell mass with presenting clinical features, response to treatment, and survival,” Cancer, 36:842-854). […]
Cytotoxicity assays were performed as follows. […] Cell viabilities were measured by WST-8 assays (Kishida Chemical, Osaka, Japan) for the cell lines, and by Trypan Blue dye exclusion assays for patient-derived primary MM cells. […]

B1: 2D7: monoclonal antibody obtained by immunizing human myeloma cells; recognizes HLA class I (HLA-A) (antibody, V domains shown)
VH: QVQLQQSGPELVKPGASVKMSCKASGYTFTDYFIHWVKQRPGQGLEWIGWIFPGDDTTDYNEKFRGKTTLTADKSSSTAYILLSSLTSEDSAMYFCVRSDDFDYWGQGTTLTVSS
VL: QIVLTQSPAIMSASPGEKVTITCSASSSVSYMHWFQQKPGTFPKLWIYSTSNLASGVPTRFSGSGSGTSYSLTISRMEAEDAATYYCQQRTSYPPTFGSGTKLEIK
IM-9 cells
  inhibition of cell viability: more efficiently than W6/32, B9.12.1, and JOAN-1
HLA-A on lymphocytes
  HLA expression level, geometric mean fluorescence intensity (GeoMFI): 91±44
HLA-A on myeloid cells
  HLA expression level, geometric mean fluorescence intensity (GeoMFI): 201±209
HLA-A on myeloma cells
  HLA expression level, geometric mean fluorescence intensity (GeoMFI): 1309±1130
HLA-A on CD34+ cells
  HLA-A expression, GeoMFI: 109±16
patient-derived MM cells
  cell viability: inhibited
